Experimental data taken from US11028174 (LEPU BIOPHARMA, dated 2021).

B1: 89C10H8 chimeric mAb (antibody, V domains shown)
VH: EVQLVESGGGLVQPGRSLTLSCVASGFTFSNYWMTWIRQAPGKGLEWVASITNTGSSTFYPDSVKGRFTISRDNTRSTLFLQINSLRSEDTATYYCTRDTTIAPFDYWGQGVMVTVSS
VL: DIQMTQSPSFLSASVGDRVTITCKASQNLNEYLNWYQQKLGEAPKRLIYKTNTLQAGIPSRFSGSGSGIDYTLTISSLQPEDVATYFCSQYNSGNTFGAGTKLELK
notes: also called 89C10H8-chimera
B2: 67F3G7 chimeric mAb (antibody, V domains shown)
VH: QVKLLQSGAALVKPGASVKMSCKASGYIFTDFWVSWVKQSHEKSLEWIGEIYPNSGVSRYNEKFKGRATMTVDKSTSTAYLELSRLTSEDSAIYYCTKYFGYTYWFGYWGQGTLVTVSS
VL: DTVLTQSPALAVSLGQRITISCRASKSVSTYMHWYQQRSGLQPKLLIYSASHLESGVPSRFSGSGSGTDFTLTIDPVEADDIANYYCQQSNELPVTFGSGTKLEIK
notes: also called 67F3G7-chimera
B3: 47C6A3 chimeric mAb (antibody, V domains shown)
VH: DVQLQESGPGLVKPSQSLSLTCTVTGYSITSDYAWNWIRQFPGNKLEWMGYIIYSGSTSYNPSLKSRISITRDTSKNQFFLQLNSVTTEDTATYYCARSTMIATNWFAYWGQGTLVTVSA
VL: DIVMTQSHKFMSTSVVDRVSITCKASQDVSLAVAWYQQKPGQSPKLLIYWASTRHTGVPDRFTGSGSGTDFALTISSVQAEDLALYYCQQHYITPWTFGGGTKLEIK
notes: also called 47C6A3-chimera

Assays:
[1] = target: PD-L1 on PD-L1 target cells (Homo sapiens (Human)) (UniProt Q9NZQ7); assay: cell-based or functional assay
[2] = target: recombinant human TGF-β (human) (UniProt P01137); assay: cell-based or functional assay
rat PD-L1 protein = rat PD-L1 protein (rat, UniProt D4AE25 19-239); assay: ELISA, coated rat PD-L1
Method: (§1) ELISA testing was carried out to evaluate the binding of chimeric antibodies to human PD-L1, mouse PD-L1, rat PD-L1, and cynomolgus PD-L1, respectively.
(§2) Briefly, microtiter plates were coated with human, mouse, rat and cynomolgus PD-L1 proteins at 0.5 µg/ml in PBS, 100 µl/well at 4° C. overnight, then blocked with 150 µl/well of 1% BSA. Three-fold dilutions of chimeric antibodies starting from 10 µg/ml were added to each well and incubated for 1 hour at 37° C. The plates were washed with PBS/Tween and then incubate with mouse-anti-human IgG Fab antibody conjugated with Horse Radish Peroxidase (HRP) for 30 mins at 37° C. After washing, the plates were developed with TMB substrate and analyzed by spectrophotometer at OD 450 nm.

mouse PD-L1 protein = mouse PD-L1 protein (mouse, UniProt Q9EP73 19-239, limits assumed); assay: ELISA, coated mouse PD-L1
Method: as §1, §2

Chain of mouse PD-L1 protein (Q9EP73 19-239 limits assumed): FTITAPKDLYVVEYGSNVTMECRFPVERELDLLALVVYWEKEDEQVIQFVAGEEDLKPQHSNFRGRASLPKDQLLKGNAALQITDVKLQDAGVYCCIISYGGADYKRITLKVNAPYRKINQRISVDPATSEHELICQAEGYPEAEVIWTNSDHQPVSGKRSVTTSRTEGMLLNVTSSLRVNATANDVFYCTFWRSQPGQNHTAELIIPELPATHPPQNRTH
Chain of rat PD-L1 protein (D4AE25 entry or part of it limits assumed): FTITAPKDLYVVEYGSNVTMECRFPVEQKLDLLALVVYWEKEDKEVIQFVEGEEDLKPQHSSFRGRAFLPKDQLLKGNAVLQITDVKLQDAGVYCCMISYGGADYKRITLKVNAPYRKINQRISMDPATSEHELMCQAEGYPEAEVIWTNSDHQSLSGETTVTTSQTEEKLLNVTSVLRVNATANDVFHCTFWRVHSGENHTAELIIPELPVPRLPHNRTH
Chain of recombinant human TGF-β (human) (P01137 279-390 limits assumed): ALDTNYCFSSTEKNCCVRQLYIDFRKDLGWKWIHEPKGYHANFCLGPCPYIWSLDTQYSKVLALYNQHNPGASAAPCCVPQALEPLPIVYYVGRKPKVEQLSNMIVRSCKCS
Chain of PD-L1 on PD-L1 target cells (Homo sapiens (Human)) (Q9NZQ7 19-290 limits assumed): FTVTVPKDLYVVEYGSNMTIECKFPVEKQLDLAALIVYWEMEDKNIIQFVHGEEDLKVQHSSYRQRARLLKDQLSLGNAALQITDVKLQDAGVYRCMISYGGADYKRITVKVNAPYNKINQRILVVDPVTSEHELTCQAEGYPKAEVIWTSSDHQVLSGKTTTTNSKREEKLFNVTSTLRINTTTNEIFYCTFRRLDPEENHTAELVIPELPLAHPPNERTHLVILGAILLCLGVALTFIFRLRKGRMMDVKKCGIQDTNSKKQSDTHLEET

| Molecule | NFAT-RE-mediated luminescence, PD1 effector cells co-cultured with PD-L1 target cells [1] [nM] | TGF-β SMAD luciferase reporter assay in transfected 293 cells [2] [nM] | binding result (rat PD-L1 protein) | binding result (mouse PD-L1 protein) |
| --- | --- | --- | --- | --- |
| M7824 (bintrafusp alfa) | 0.85 | 0.0669 |  |  |
| B1 |  |  | no binding (tested: starting from 10 µg/ml) | no binding (tested: starting from 10 µg/ml) |
| B2 |  |  | no binding (tested: starting from 10 µg/ml) | no binding (tested: starting from 10 µg/ml) |
| B3 |  |  | no binding (tested: starting from 10 µg/ml) | no binding (tested: starting from 10 µg/ml) |
